From article PMC6596994 (Nature, 2019)
Read-outs that look alike come from different tables or passages of the source. Ends that are not written are not given here.

B4: Mouse TBK1 (1–657, S172A) (domain or fragment)
chain: MQSTSNHLWLLSDILGQGATANVFRGRHKKTGDLYAVKVFNNISFLRPVDVQMREFEVLKKLNHKNIVKLFAIEEETTTRHKVLIMEFCPCGSLYTVLEEPSNAYGLPESEFLIVLRDVVGGMNHLRENGIVHRDIKPGNIMRVIGEDGQSVYKLTDFGAARELEDDEQFVALYGTEEYLHPDMYERAVLRKDHQKKYGATVDLWSVGVTFYHAATGSLPFRPFEGPRRNKEVMYKIITGKPSGAISGVQKAENGPIDWSGDMPLSCSLSQGLQALLTPVLANILEADQEKCWGFDQFFAETSDVLHRMVIHVFSLQHMTAHKIYIHSYNTAAVFHELVYKQTKIVSSNQELIYEGRRLVLELGRLAQHFPKTTEENPIFVTSREQLNTVGLRYEKISLPKIHPRYDLDGDASMAKAVTGVVCYACRTASTLLLYQELMRKGVRWLVELVKDDYNETVHKKTEVVITLDFCIRNIEKTVKVYEKLMKVNLEAAELGEISDIHTKLLRLSSSQGTIESSLQDISSRLSPGGLLADTWAHQEGTHPRDRNVEKLQVLLNCITEIYYQFKKDKAERRLAYNEEQIHKFDKQKLYYHATKAMSHFSEECVRKYEAFKDKSEEWMRKMLHLRKQLLSLTNQCFDIEEEVSKYQDYTNELQET
B6: Human TBK1 (1–657, S172A) (domain or fragment)
chain: MQSTSNHLWLLSDILGQGATANVFRGRHKKTGDLFAIKVFNNISFLRPVDVQMREFEVLKKLNHKNIVKLFAIEEETTTRHKVLIMEFCPCGSLYTVLEEPSNAYGLPESEFLIVLRDVVGGMNHLRENGIVHRDIKPGNIMRVIGEDGQSVYKLTDFGAARELEDDEQFVALYGTEEYLHPDMYERAVLRKDHQKKYGATVDLWSIGVTFYHAATGSLPFRPFEGPRRNKEVMYKIITGKPSGAISGVQKAENGPIDWSGDMPVSCSLSRGLQVLLTPVLANILEADQEKCWGFDQFFAETSDILHRMVIHVFSLQQMTAHKIYIHSYNTATIFHELVYKQTKIISSNQELIYEGRRLVLEPGRLAQHFPKTTEENPIFVVSREPLNTIGLIYEKISLPKVHPRYDLDGDASMAKAITGVVCYACRIASTLLLYQELMRKGIRWLIELIKDDYNETVHKKTEVVITLDFCIRNIEKTVKVYEKLMKINLEAAELGEISDIHTKLLRLSSSQGTIETSLQDIDSRLSPGGSLADAWAHQEGTHPKDRNVEKLQVLLNCMTEIYYQFKKDKAERRLAYNEEQIHKFDKQKLYYHATKAMTHFTDECVKKYEAFLNKSEEWIRKMLHLRKQLLSLTNQCFDIEEEVSKYQEYTNELQET

How the values were obtained:
[1] = target: p-hSTING (155–379) (human) (UniProt Q86WV6); test: SPR
[2] = target: B6; test: SPR
[3] = target: B4; test: SPR
[4] = target: B6; test: SPR; remark: listed apart in the source
[5] = target: B4; test: SPR; remark: listed apart in the source
[6] = target: T1, human IRF-3 (residue 189–427) (human, UniProt Q14653 189-427); test: SPR
T1 sequence: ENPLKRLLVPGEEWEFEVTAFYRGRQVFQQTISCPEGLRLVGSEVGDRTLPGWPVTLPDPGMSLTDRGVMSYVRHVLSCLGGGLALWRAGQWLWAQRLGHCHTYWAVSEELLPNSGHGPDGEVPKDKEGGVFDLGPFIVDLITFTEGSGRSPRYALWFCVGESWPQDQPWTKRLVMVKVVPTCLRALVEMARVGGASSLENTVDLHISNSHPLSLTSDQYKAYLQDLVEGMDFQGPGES

[7] = target: T2, human STING CTT (residue 342 to 379, V343W), crystallised (human, UniProt Q86WV6 342-379, V343W); test: crystal structure
T2 chain: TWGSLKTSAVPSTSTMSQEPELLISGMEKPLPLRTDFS

crystal structure = target: the molecule itself; test: crystal structure
hSTING (155–379) P373A = hSTING (155–379) P373A (human, UniProt Q86WV6 155-379, P373A, biotin on the Avi tag); test: SPR
hSTING (155–379) L372A = hSTING (155–379) L372A (human, UniProt Q86WV6 155-379, L372A, biotin on the Avi tag); test: SPR

human TBK1 Q581A (from UniProt Q9UHD2 1-657) (domain or fragment)
fold reduction of the binding affinity against wild type TBK1 [1]: 20 fold

human TBK1 K584A (from UniProt Q9UHD2 1-657) (domain or fragment)
fold reduction of the binding affinity against wild type TBK1 [1]: 20 fold

SGMEKPLPLRTDFS [p-hSTING (366–379)]
Kd [2]: 35.6 µM | Kd [3]: 30.8 µM

B1: hSTING (155–379), unphosphorylated (domain or fragment)
chain: VAHGLAWSYYIGYLRLILPELQARIRTYNQHYNNLLRGAVSQRLYILLPLDCGVPDNLSMADPNIRFLDKLPQQTGDHAGIKDRVYSNSIYELLENGQRAGTCVLEYATPLQTLFAMSQYSQAGFSREDRLEQAKLFCRTLEDILADAPESQNNCRLIAYQEPADDSSFSLSQEVLRHLRQEEKEEVTVGSLKTSAVPSTSTMSQEPELLISGMEKPLPLRTDFS
modifications: biotin on the Avi tag
Kd [2]: ~290 µM | Kd [3]: ~170 µM | Kd [4]: ~230 µM | Kd [5]: ~260 µM

B2: hSTING (155–379) L374A (domain or fragment)
chain: VAHGLAWSYYIGYLRLILPELQARIRTYNQHYNNLLRGAVSQRLYILLPLDCGVPDNLSMADPNIRFLDKLPQQTGDHAGIKDRVYSNSIYELLENGQRAGTCVLEYATPLQTLFAMSQYSQAGFSREDRLEQAKLFCRTLEDILADAPESQNNCRLIAYQEPADDSSFSLSQEVLRHLRQEEKEEVTVGSLKTSAVPSTSTMSQEPELLISGMEKPLPARTDFS
modifications: biotin on the Avi tag
binding result [6]: binds

B3: hSTING (155–379, T376E F378M S379W), biotin-Avi-His6-SUMO fusion (domain or fragment)
chain: VAHGLAWSYYIGYLRLILPELQARIRTYNQHYNNLLRGAVSQRLYILLPLDCGVPDNLSMADPNIRFLDKLPQQTGDHAGIKDRVYSNSIYELLENGQRAGTCVLEYATPLQTLFAMSQYSQAGFSREDRLEQAKLFCRTLEDILADAPESQNNCRLIAYQEPADDSSFSLSQEVLRHLRQEEKEEVTVGSLKTSAVPSTSTMSQEPELLISGMEKPLPLREDMW
modifications: biotin on the Avi tag
Kd [2]: 1.4 µM | Kd [3]: 1.2 µM

STSTMSQEPELLISGMEKPLPLRTDFS [p-hSTING (353–379)]
Kd [2]: 22.6 µM | Kd [3]: 25.1 µM

B4
stoichiometry N [7]: 1 TBK1 chain per STING peptide (2:2) | stoichiometry N (crystal structure): 2

SGMEKPLPLREDWF (also: biotin on the Avi tag) [hSTING (366–379, T376E F378W S379F)]
Kd [3]: 27.1 µM

SGMEKPLPLREDWE (also: biotin on the Avi tag) [hSTING (366–379, T376E F378W S379E)]
Kd [3]: ~127 µM

B5: hSTING (155–379, T376E) (domain or fragment)
chain: VAHGLAWSYYIGYLRLILPELQARIRTYNQHYNNLLRGAVSQRLYILLPLDCGVPDNLSMADPNIRFLDKLPQQTGDHAGIKDRVYSNSIYELLENGQRAGTCVLEYATPLQTLFAMSQYSQAGFSREDRLEQAKLFCRTLEDILADAPESQNNCRLIAYQEPADDSSFSLSQEVLRHLRQEEKEEVTVGSLKTSAVPSTSTMSQEPELLISGMEKPLPLREDFS
modifications: biotin on the Avi tag
Kd [3]: ~62 µM

SGMEKPLPLREDWI (also: biotin on the Avi tag) [hSTING (366–379, T376E F378W S379I)]
Kd [3]: ~59 µM

SGMEKPLPLREDWM (also: biotin on the Avi tag) [hSTING (366–379, T376E F378W 3379M)]
Kd [3]: 43.9 µM

TWGSLKTSAVPSTSTMSQEPELLISGMEKPLPLRTDFS [p-hSTING (342–379)]
Kd [2]: 16.8 µM | Kd [3]: 15.3 µM

B6
fold reduction of the binding affinity against wild type STING (hSTING (155–379) P373A): ~10 fold | fold reduction of the binding affinity against wild type STING (hSTING (155–379) L372A): ~10 fold
